# T1: FLAG-SMARCAD1, full-length, wild type, recombinant from E. coli (human, UniProt Q9H4L7 1-1026)
# T1 construct: SMARCAD1, human, full-length; Cloned in pET28a-SUMO; source: E. coli BL-21 CodonPlus (DE3)-RIL, purified (HisTrap, Heparin, ProSwift SAX-1S)
# T1 sequence (looked up): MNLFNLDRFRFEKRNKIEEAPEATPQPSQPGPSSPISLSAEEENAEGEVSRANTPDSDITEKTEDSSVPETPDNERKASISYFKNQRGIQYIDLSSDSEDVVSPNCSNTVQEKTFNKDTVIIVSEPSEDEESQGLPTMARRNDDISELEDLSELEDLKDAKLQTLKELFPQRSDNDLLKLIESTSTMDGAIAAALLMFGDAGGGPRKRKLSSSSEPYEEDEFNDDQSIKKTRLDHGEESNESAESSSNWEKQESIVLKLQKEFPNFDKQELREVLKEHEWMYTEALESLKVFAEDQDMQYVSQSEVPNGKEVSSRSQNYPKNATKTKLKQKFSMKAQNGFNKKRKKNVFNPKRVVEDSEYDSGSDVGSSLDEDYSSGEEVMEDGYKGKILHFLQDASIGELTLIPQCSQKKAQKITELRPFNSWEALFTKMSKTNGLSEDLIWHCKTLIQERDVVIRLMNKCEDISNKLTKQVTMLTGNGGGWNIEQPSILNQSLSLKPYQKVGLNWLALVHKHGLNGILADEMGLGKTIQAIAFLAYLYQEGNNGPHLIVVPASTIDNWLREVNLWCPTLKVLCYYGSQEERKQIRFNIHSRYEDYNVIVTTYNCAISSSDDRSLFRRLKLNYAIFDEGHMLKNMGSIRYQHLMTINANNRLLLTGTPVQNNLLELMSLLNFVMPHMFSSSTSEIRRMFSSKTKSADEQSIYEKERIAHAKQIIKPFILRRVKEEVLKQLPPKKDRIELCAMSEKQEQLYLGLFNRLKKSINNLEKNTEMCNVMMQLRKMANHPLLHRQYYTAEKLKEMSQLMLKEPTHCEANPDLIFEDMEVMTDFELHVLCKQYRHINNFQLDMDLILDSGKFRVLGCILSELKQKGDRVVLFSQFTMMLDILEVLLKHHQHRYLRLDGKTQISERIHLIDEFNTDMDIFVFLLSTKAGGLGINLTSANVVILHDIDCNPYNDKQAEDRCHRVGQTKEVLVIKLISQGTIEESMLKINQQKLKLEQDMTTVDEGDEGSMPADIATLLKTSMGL
# Columns and labels:
# Details in all cases: both partners purified
# [1] = molecular target: T2, KAP1 RBCC (S33-K434), purified (human, UniProt Q13263 33-434); test: co-IP; purified SMARCAD1 fragments (CUE1,2, CUE1) and KAP1 RBCC, 9.6μg of each in a 240μL binding reaction, 1 hour at 4°C; immunoprecipitated with anti-FLAG M2 affinity gel for 3 hours at 4°C
# T2 construct: KAP1 (TRIM28), human, residues S33-K434, RBCC domain; also called KAP1 S33-K434; Fragment 1; source: E. coli BL-21 CodonPlus (DE3)-RP, purified (Ni-NTA, Mono Q)
# [2] = molecular target: T1, FLAG-SMARCAD1, full-length, wild type, …; test: co-IP; purified full-length SMARCAD1 and KAP1 from E. coli, 7μg of each in 280μL SK binding buffer, 200mM NaCl, 4°C; immunoprecipitated overnight with anti-FLAG M2 affinity gel
# [3] = molecular target: T3, KAP1 RBCC (S33-K434) M335A (human, UniProt Q13263 33-434, M335A); test: co-IP; purified SMARCAD1 fragments (CUE1,2, CUE1) and KAP1 RBCC, 9.6μg of each in a 240μL binding reaction, 1 hour at 4°C; immunoprecipitated with anti-FLAG M2 affinity gel for 3 hours at 4°C
# T3 construct: KAP1 (TRIM28), human, RBCC fragment S33-K434; source: E. coli, purified; construct generated by GenScript
# [4] = molecular target: T4, KAP1 RBCC (S33-K434) E343A (human, UniProt Q13263 33-434, E343A); test: as above
# T4 construct: KAP1 (TRIM28), human, RBCC fragment S33-K434; source: E. coli, purified; construct generated by GenScript
# [5] = molecular target: T5, KAP1 RBCC (S33-K434) L376A (human, UniProt Q13263 33-434, L376A); test: as above
# T5 construct: KAP1 (TRIM28), human, RBCC fragment S33-K434; source: E. coli, purified; construct generated by GenScript
# [6] = molecular target: T6, KAP1 RBCC (S33-K434) I379A (human, UniProt Q13263 33-434, I379A); test: as above
# T6 construct: KAP1 (TRIM28), human, RBCC fragment S33-K434; source: E. coli, purified; construct generated by GenScript
# [7] = molecular target: T7, KAP1 RBCC (S33-K434) V380A (human, UniProt Q13263 33-434, V380A); test: as above
# T7 construct: KAP1 (TRIM28), human, RBCC fragment S33-K434; source: E. coli, purified; construct generated by GenScript
# T7 sequence (Q13263 33-434 V380A): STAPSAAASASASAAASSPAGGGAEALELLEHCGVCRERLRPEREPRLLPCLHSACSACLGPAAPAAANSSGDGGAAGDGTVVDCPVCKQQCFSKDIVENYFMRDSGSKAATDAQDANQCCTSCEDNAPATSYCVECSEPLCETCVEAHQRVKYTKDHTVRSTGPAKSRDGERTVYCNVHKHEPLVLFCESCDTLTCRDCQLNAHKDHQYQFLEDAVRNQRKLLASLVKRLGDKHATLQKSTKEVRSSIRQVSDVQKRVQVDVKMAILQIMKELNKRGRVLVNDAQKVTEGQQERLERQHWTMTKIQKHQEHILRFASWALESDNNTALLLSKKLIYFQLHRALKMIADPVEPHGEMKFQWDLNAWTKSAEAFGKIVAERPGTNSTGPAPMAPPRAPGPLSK
# T3 sequence (Q13263 33-434 M335A): as the sequence (Q13263 33-434 V380A) above, with M303A, A348V counted along it
# T5 sequence (Q13263 33-434 L376A): as the sequence (Q13263 33-434 V380A) above, with L344A, A348V counted along it
# T4 sequence (Q13263 33-434 E343A): as the sequence (Q13263 33-434 V380A) above, with E311A, A348V counted along it
# T6 sequence (Q13263 33-434 I379A): as the sequence (Q13263 33-434 V380A) above, with I347A, A348V counted along it
binding result [1],Binder,also measured
binds,"SMARCAD1 CUE1 fragment (S95-E237), wild type (domain or fragment, human, UniProt Q9H4L7 95-237, looked up, SMARCAD1, human, residues S95-E237 spanning only the first CUE domain; also called wild type CUE1 fragment; source: E. coli BL-21 CodonPlus (DE3)-RIL, purified (Ni-NTA, Mono Q if required)) SSDSEDVVSPNCSNTVQEKTFNKDTVIIVSEPSEDEESQGLPTMARRNDDISELEDLSELEDLKDAKLQTLKELFPQRSDNDLLKLIESTSTMDGAIAAALLMFGDAGGGPRKRKLSSSSEPYEEDEFNDDQSIKKTRLDHGE",
,"KAP1, full-length, recombinant from E. coli (HA-KAP1) (natural protein, human, UniProt Q13263 1-835, looked up, KAP1 (TRIM28), human, full-length; also called TRIM28; TIF1β; source: E. coli BL-21 CodonPlus (DE3)-RP, purified (HisTrap, Heparin, Sephacryl S-400 gel filtration)) MAASAAAASAAAASAASGSPGPGEGSAGGEKRSTAPSAAASASASAAASSPAGGGAEALELLEHCGVCRERLRPEREPRLLPCLHSACSACLGPAAPAAANSSGDGGAAGDGTVVDCPVCKQQCFSKDIVENYFMRDSGSKAATDAQDANQCCTSCEDNAPATSYCVECSEPLCETCVEAHQRVKYTKDHTVRSTGPAKSRDGERTVYCNVHKHEPLVLFCESCDTLTCRDCQLNAHKDHQYQFLEDAVRNQRKLLASLVKRLGDKHATLQKSTKEVRSSIRQVSDVQKRVQVDVKMAILQIMKELNKRGRVLVNDAQKVTEGQQERLERQHWTMTKIQKHQEHILRFASWALESDNNTALLLSKKLIYFQLHRALKMIVDPVEPHGEMKFQWDLNAWTKSAEAFGKIVAERPGTNSTGPAPMAPPRAPGPLSKQGSGSSQPMEVQEGYGFGSGDDPYSSAEPHVSGVKRSRSGEGEVSGLMRKVPRVSLERLDLDLTADSQPPVFKVFPGSTTEDYNLIVIERGAAAAATGQPGTAPAGTPGAPPLAGMAIVKEEETEAAIGAPPTATEGPETKPVLMALAEGPGAEGPRLASPSGSTSSGLEVVAPEGTSAPGGGPGTLDDSATICRVCQKPGDLVMCNQCEFCFHLDCHLPALQDVPGEEWSCSLCHVLPDLKEEDGSLSLDGADSTGVVAKLSPANQRKCERVLLALFCHEPCRPLHQLATDSTFSLDQPGGTLDLTLIRARLQEKLSPPYSSPQEFAQDVGRMFKQFNKLTEDKADVQSIIGLQRFFETRMNEAFGDTKFSAVLVEPPPMSLPGAGLSSQELSGGPGDGP",binding result [2]: binds
binds,"FLAG-tagged SMARCAD1 CUE1,2 fragment (S95-N347), wild type (domain or fragment, human, UniProt Q9H4L7 95-347, looked up, SMARCAD1, human, residues S95-N347 encompassing both CUE domains; source: E. coli BL-21 CodonPlus (DE3)-RIL, purified (Ni-NTA, Mono Q if required)) SSDSEDVVSPNCSNTVQEKTFNKDTVIIVSEPSEDEESQGLPTMARRNDDISELEDLSELEDLKDAKLQTLKELFPQRSDNDLLKLIESTSTMDGAIAAALLMFGDAGGGPRKRKLSSSSEPYEEDEFNDDQSIKKTRLDHGEESNESAESSSNWEKQESIVLKLQKEFPNFDKQELREVLKEHEWMYTEALESLKVFAEDQDMQYVSQSEVPNGKEVSSRSQNYPKNATKTKLKQKFSMKAQNGFNKKRKKN",binding result [3]: binds; binding result [4]: binds; binding result [5]: binds; binding result [6]: binds; binding result [7]: binds
binds,"FLAG-tagged SMARCAD1 CUE1,2 fragment P170A (domain or fragment, human, UniProt Q9H4L7 95-347, looked up, SMARCAD1, human, CUE1,2 fragment S95-N347; source: E. coli, purified; construct generated by GenScript) SSDSEDVVSPNCSNTVQEKTFNKDTVIIVSEPSEDEESQGLPTMARRNDDISELEDLSELEDLKDAKLQTLKELFAQRSDNDLLKLIESTSTMDGAIAAALLMFGDAGGGPRKRKLSSSSEPYEEDEFNDDQSIKKTRLDHGEESNESAESSSNWEKQESIVLKLQKEFPNFDKQELREVLKEHEWMYTEALESLKVFAEDQDMQYVSQSEVPNGKEVSSRSQNYPKNATKTKLKQKFSMKAQNGFNKKRKKN",
binds,"FLAG-tagged SMARCAD1 CUE1,2 fragment L195A (domain or fragment, human, UniProt Q9H4L7 95-347, looked up, SMARCAD1, human, CUE1,2 fragment S95-N347; source: E. coli, purified; construct generated by GenScript) SSDSEDVVSPNCSNTVQEKTFNKDTVIIVSEPSEDEESQGLPTMARRNDDISELEDLSELEDLKDAKLQTLKELFPQRSDNDLLKLIESTSTMDGAIAAAALMFGDAGGGPRKRKLSSSSEPYEEDEFNDDQSIKKTRLDHGEESNESAESSSNWEKQESIVLKLQKEFPNFDKQELREVLKEHEWMYTEALESLKVFAEDQDMQYVSQSEVPNGKEVSSRSQNYPKNATKTKLKQKFSMKAQNGFNKKRKKN",
binds,"FLAG-tagged SMARCAD1 CUE1,2 fragment D188A (domain or fragment, human, UniProt Q9H4L7 95-347, looked up, SMARCAD1, human, CUE1,2 fragment S95-N347; source: E. coli, purified; construct generated by GenScript) SSDSEDVVSPNCSNTVQEKTFNKDTVIIVSEPSEDEESQGLPTMARRNDDISELEDLSELEDLKDAKLQTLKELFPQRSDNDLLKLIESTSTMAGAIAAALLMFGDAGGGPRKRKLSSSSEPYEEDEFNDDQSIKKTRLDHGEESNESAESSSNWEKQESIVLKLQKEFPNFDKQELREVLKEHEWMYTEALESLKVFAEDQDMQYVSQSEVPNGKEVSSRSQNYPKNATKTKLKQKFSMKAQNGFNKKRKKN",
binds,"FLAG-tagged SMARCAD1 CUE1,2 fragment L196A (domain or fragment, human, UniProt Q9H4L7 95-347, looked up, SMARCAD1, human, CUE1,2 fragment S95-N347; source: E. coli, purified; construct generated by GenScript) SSDSEDVVSPNCSNTVQEKTFNKDTVIIVSEPSEDEESQGLPTMARRNDDISELEDLSELEDLKDAKLQTLKELFPQRSDNDLLKLIESTSTMDGAIAAALAMFGDAGGGPRKRKLSSSSEPYEEDEFNDDQSIKKTRLDHGEESNESAESSSNWEKQESIVLKLQKEFPNFDKQELREVLKEHEWMYTEALESLKVFAEDQDMQYVSQSEVPNGKEVSSRSQNYPKNATKTKLKQKFSMKAQNGFNKKRKKN",
binds,"FLAG-tagged SMARCAD1 CUE1,2 fragment Q171A (domain or fragment, human, UniProt Q9H4L7 95-347, looked up, SMARCAD1, human, CUE1,2 fragment S95-N347; source: E. coli, purified; construct generated by GenScript) SSDSEDVVSPNCSNTVQEKTFNKDTVIIVSEPSEDEESQGLPTMARRNDDISELEDLSELEDLKDAKLQTLKELFPARSDNDLLKLIESTSTMDGAIAAALLMFGDAGGGPRKRKLSSSSEPYEEDEFNDDQSIKKTRLDHGEESNESAESSSNWEKQESIVLKLQKEFPNFDKQELREVLKEHEWMYTEALESLKVFAEDQDMQYVSQSEVPNGKEVSSRSQNYPKNATKTKLKQKFSMKAQNGFNKKRKKN",
binds,"FLAG-tagged SMARCAD1 CUE1,2 fragment E167A (domain or fragment, human, UniProt Q9H4L7 95-347, looked up, SMARCAD1, human, CUE1,2 fragment S95-N347; source: E. coli, purified; construct generated by GenScript) SSDSEDVVSPNCSNTVQEKTFNKDTVIIVSEPSEDEESQGLPTMARRNDDISELEDLSELEDLKDAKLQTLKALFPQRSDNDLLKLIESTSTMDGAIAAALLMFGDAGGGPRKRKLSSSSEPYEEDEFNDDQSIKKTRLDHGEESNESAESSSNWEKQESIVLKLQKEFPNFDKQELREVLKEHEWMYTEALESLKVFAEDQDMQYVSQSEVPNGKEVSSRSQNYPKNATKTKLKQKFSMKAQNGFNKKRKKN",
binds,"FLAG-tagged SMARCAD1 CUE1,2 fragment Δ200-230 (domain or fragment, human, UniProt Q9H4L7 95-347, looked up, SMARCAD1, human, CUE1,2 fragment S95-N347 with residues 200-230 deleted; source: E. coli, purified; construct generated by GenScript) SSDSEDVVSPNCSNTVQEKTFNKDTVIIVSEPSEDEESQGLPTMARRNDDISELEDLSELEDLKDAKLQTLKELFPQRSDNDLLKLIESTSTMDGAIAAALLMFGTRLDHGEESNESAESSSNWEKQESIVLKLQKEFPNFDKQELREVLKEHEWMYTEALESLKVFAEDQDMQYVSQSEVPNGKEVSSRSQNYPKNATKTKLKQKFSMKAQNGFNKKRKKN",

# — doi:10.1101/375832, “A Ubiquitin-Binding Domain that Does Not Bind Ubiquitin” (bioRxiv, 2018)
